# Data published in patent publication US20110206616A1.
# Target: SNAP 25 (endogenous, rat neuronal cells) (rat) (UniProt P60881)
# Test: cell-based or functional assay
# Sequence of UniProt P60881 (P60881 whole entry): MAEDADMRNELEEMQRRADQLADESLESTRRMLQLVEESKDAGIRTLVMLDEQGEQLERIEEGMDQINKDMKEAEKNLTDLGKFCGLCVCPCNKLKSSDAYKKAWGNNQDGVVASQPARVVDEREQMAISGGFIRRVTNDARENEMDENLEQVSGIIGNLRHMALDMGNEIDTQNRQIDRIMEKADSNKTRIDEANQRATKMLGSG
substance,measurement,value
wt BoNT/A (wild type botulinum neurotoxin serotype A) (from UniProt P0DPI1 2-1296),intracellular SNAP 25 cleavage (concentration of wt toxin used),0.5 nM
